Test results reported in PMC11956251 (BMC Microbiology, 2025).

Molecular target: T1, His-FtsZ fusion protein (Streptococcus suis SC19, UniProt A0A0H3MXZ7 1-409)
T1 sequence (looked up): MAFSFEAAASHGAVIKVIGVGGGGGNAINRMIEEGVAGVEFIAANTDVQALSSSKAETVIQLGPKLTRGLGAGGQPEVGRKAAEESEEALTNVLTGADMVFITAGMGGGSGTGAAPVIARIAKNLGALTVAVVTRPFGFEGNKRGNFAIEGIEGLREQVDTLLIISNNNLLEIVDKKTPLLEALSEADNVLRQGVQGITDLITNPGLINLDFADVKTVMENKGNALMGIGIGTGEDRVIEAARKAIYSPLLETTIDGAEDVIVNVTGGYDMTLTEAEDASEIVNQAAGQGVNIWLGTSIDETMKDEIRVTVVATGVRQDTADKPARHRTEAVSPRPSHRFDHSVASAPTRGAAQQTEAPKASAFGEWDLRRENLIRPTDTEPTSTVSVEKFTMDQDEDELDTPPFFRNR
Assay: BLI

B1: SepF labeled with biotin (natural protein, Streptococcus suis SC19, UniProt A4VTL1 1-187, looked up)
chain: MALKDTFKNLFNYFEVDEVNEVEEQADAYSMPNDRPKMRVANTTVAPVREQQPKVETRREARSESQLQRLHERQQELMTNNNEKEIVKTTIDIKFPKRYEDAPEMVNLLLDNASILIDFQYMSEQQARRCLDYLDGARSVLSGNLKKVSNTMWLLTPVNVTVNIEELRNAGTTTGVADSNFEFDIKR
modifications: biotin (biotin labeling kit; sites not stated)
  Kd: 0.67 nM
